# Measurements: IntAct's records for PubMed 24937146
# B1: Microtubule protein alp7 (Schizosaccharomyces pombe (strain ATCC 38366 / 972)), Q9URY2 (parent)
# chain: MSDIVSSSTDYSRRSPSSSSIGTNETDHTGFHEKRQGASSESLIPPAQRSSEESMPAPKLFPKLTSKPNPQLNLKDTLNKRVSDRLQALELNKSFDFSGTPRPMHPISHPLSQHKTPEFKHRKRNVESILTPKNPSLFSSSNAASQRGSLNTAPSNFAYSHSSSLQTSASSRPPVLSNGSFPRQTNTAPLNPPVHLKDNIRNSATPSTSQADIPTQYPINSTQKQQAKYEAEIEGYKAKLAGTYHEISVLQNTIVNVSGQLIAVNDQLQQLRSGKASTSPSTKDTNMRLVEGHNEETLALQRGKYTQEEVDKLIQERMEKVAEDLHAQYSAKHTQKINAFKANYARKYEATIQELQNQIGTAPNAPKISNSNWEEERRALKADNQTLQKQLEKAIQERQDMSDFLNNFKADMAKSDKLLMQQQSQQTGDLETLRLQLQALQEELRVEREERQQLIQMSEDLVIAMDQLNLEQKS
# partner: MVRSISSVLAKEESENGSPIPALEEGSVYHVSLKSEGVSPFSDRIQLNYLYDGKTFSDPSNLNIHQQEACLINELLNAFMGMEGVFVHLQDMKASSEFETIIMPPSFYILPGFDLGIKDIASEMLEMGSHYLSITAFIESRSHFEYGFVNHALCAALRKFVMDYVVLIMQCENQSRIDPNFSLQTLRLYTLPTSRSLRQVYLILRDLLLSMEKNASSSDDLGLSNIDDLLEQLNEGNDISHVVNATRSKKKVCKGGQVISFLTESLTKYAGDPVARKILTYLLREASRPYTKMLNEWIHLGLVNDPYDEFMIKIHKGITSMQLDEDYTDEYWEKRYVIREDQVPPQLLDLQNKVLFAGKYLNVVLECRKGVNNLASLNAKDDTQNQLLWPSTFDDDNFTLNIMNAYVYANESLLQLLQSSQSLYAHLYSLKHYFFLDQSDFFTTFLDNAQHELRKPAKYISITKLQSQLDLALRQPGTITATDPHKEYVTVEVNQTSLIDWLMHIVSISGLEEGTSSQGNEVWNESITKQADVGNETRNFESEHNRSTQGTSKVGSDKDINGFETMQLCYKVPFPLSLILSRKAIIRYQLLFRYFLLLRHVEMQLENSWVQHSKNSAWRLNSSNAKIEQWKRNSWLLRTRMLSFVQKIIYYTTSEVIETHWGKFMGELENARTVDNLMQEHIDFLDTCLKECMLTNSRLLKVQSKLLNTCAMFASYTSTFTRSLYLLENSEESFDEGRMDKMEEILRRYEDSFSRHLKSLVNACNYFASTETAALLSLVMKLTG
# B2: Microtubule protein alp7 (Schizosaccharomyces pombe (strain ATCC 38366 / 972)), Q9URY2 (parent)
# chain: B1 chain
# partner: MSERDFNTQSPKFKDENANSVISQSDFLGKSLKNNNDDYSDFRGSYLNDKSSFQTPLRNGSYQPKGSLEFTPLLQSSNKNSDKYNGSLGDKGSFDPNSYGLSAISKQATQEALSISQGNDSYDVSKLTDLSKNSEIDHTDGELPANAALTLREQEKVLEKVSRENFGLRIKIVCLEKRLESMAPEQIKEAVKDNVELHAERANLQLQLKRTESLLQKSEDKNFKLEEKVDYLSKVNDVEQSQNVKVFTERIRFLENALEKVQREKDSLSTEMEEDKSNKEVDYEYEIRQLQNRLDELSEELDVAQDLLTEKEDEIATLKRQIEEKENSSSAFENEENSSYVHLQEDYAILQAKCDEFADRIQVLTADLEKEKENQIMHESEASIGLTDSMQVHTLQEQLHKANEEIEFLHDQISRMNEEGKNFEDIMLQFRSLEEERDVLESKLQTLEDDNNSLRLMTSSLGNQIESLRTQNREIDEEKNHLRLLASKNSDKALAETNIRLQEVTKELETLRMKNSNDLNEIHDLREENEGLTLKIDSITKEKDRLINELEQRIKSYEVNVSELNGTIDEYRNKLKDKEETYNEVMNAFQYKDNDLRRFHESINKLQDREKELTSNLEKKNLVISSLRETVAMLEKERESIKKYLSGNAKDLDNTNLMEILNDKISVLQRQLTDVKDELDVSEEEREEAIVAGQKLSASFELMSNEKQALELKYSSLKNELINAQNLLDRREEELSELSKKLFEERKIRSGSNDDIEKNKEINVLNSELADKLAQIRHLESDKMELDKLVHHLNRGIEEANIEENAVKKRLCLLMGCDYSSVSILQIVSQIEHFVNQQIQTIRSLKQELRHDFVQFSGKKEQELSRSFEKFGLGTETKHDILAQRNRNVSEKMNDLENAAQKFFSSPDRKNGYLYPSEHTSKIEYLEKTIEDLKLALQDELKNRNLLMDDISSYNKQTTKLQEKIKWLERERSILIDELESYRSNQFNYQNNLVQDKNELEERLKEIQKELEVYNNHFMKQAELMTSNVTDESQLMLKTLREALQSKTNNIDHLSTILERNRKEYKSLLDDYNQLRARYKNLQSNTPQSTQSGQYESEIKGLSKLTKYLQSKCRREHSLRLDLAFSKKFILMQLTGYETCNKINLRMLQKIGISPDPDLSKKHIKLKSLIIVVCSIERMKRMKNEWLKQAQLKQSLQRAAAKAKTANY
# B3: Microtubule protein alp7 (Schizosaccharomyces pombe (strain ATCC 38366 / 972)), Q9URY2 (parent)
# chain: B1 chain
# partner: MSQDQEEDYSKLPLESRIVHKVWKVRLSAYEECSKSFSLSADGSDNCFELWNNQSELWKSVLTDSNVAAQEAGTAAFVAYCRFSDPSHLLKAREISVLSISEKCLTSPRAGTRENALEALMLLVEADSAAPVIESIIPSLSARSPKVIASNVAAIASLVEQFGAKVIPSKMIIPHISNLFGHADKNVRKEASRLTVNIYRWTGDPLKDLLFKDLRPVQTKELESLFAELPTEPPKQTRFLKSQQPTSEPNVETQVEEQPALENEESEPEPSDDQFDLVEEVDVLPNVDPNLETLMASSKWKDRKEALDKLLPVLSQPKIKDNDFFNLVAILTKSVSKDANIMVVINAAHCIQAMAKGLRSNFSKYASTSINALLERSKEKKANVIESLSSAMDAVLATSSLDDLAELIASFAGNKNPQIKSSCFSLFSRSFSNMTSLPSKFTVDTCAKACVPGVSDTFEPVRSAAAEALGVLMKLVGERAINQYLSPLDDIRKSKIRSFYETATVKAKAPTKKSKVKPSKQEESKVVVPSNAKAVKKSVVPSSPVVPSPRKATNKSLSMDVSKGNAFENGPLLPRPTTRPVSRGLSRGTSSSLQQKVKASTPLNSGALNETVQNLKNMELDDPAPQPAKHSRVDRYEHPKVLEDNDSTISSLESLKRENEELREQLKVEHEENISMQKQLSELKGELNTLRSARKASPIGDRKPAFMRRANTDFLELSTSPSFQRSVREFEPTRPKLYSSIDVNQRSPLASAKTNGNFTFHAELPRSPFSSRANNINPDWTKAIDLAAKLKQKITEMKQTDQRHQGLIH
# Variants of: B1
# Conditions: with spc97_schpo alp4, Q9Y705
row,Variant,effect of a mutation on the interaction
1,MSDIVSSSTDYSRRSPSSSSIGTNETDHTGFHEKRQGASSESLIPPAQRSSEESMPAPKLFPKLTSKPNPQLNLKDTLNKRVSDRLQALELNKSFDFSGTPRPMHPISHPLSQHKTPEFKHRKRNVESILTPKNPSLFSSSNAASQRGSLNTAPSNFAYSHSSSLQTSASSRPPVLSNGSFPRQTNTAPLNPPVHLKDNIRNSATPSTSQADIPTQYPINSTQKQQAKYEAEIEGYKAKLAGTYHEISVLQNTIVNVSGQLIAVNDQLQQLRSGKASTSPSTKDTNMRLVEGHNEETLALQRGKYTQEEVDKLIQERMEKVAEDLHAQYSAKHTQKINAFAANAAAAAEATIQELQNQIGTAPNAPKISNSNWEEERRALKADNQTLQKQLEKAIQERQDMSDFLNNFKADMAKSDKLLMQQQSQQTGDLETLRLQLQALQEELRVEREERQQLIQMSEDLVIAMDQLNLEQKS [K341A;Y344A;R346A;K347A;Y348A],disrupting interaction

# Variants of: B2
# Conditions: with pcp1_schpo pcp1, Q92351
row,Variant,effect of a mutation on the interaction
1,MSDIVSSSTDYSRRSPSSSSIGTNETDHTGFHEKRQGASSESLIPPAQRSSEESMPAPKLFPKLTSKPNPQLNLKDTLNKRVSDRLQALELNKSFDFSGTPRPMHPISHPLSQHKTPEFKHRKRNVESILTPKNPSLFSSSNAASQRGSLNTAPSNFAYSHSSSLQTSASSRPPVLSNGSFPRQTNTAPLNPPVHLKDNIRNSATPSTSQADIPTQYPINSTQKQQAKYEAEIEGYKAKLAGTYHEISVLQNTIVNVSGQLIAVNDQLQQLRSGKASTSPSTKDTNMRLVEGHNEETLALQRGKYTQEEVDKLIQERMEKVAEDLHAQYSAKHTQKINAFAANAAAAAEATIQELQNQIGTAPNAPKISNSNWEEERRALKADNQTLQKQLEKAIQERQDMSDFLNNFKADMAKSDKLLMQQQSQQTGDLETLRLQLQALQEELRVEREERQQLIQMSEDLVIAMDQLNLEQKS [K341A;Y344A;R346A;K347A;Y348A],disrupting interaction

# Variants of: B3
# Conditions: with alp14_schpo alp14, O94534
row,Variant,effect of a mutation on the interaction
1,MSDIVSSSTDYSRRSPSSSSIGTNETDHTGFHEKRQGASSESLIPPAQRSSEESMPAPKLFPKLTSKPNPQLNLKDTLNKRVSDRLQALELNKSFDFSGTPRPMHPISHPLSQHKTPEFKHRKRNVESILTPKNPSLFSSSNAASQRGSLNTAPSNFAYSHSSSLQTSASSRPPVLSNGSFPRQTNTAPLNPPVHLKDNIRNSATPSTSQADIPTQYPINSTQKQQAKYEAEIEGYKAKLAGTYHEISVLQNTIVNVSGQLIAVNDQLQQLRSGKASTSPSTKDTNMRLVEGHNEETLALQRGKYTQEEVDKLIQERMEKVAEDLHAQYSAKHTQKINAFAANAAAAAEATIQELQNQIGTAPNAPKISNSNWEEERRALKADNQTLQKQLEKAIQERQDMSDFLNNFKADMAKSDKLLMQQQSQQTGDLETLRLQLQALQEELRVEREERQQLIQMSEDLVIAMDQLNLEQKS [K341A;Y344A;R346A;K347A;Y348A],disrupting interaction
